Measured values: publication doi:10.1101/2024.08.25.607996 (2024)
Values joined by “and” are separate entries in the source; they are usually repeats but may differ in a detail not shown here. Identical values can stand only once.

T1: CCoV-HuPn-2018 S domain B (receptor-binding domain), residues 523-671, avi- and His-tagged (CCoV-HuPn-2018 (canine coronavirus))
T1 chain: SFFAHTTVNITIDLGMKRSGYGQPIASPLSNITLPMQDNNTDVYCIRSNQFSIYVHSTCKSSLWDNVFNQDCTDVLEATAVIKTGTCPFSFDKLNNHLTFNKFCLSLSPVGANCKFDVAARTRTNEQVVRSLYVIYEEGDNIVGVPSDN

B1: feline APN-Fc ectodomain (dimeric) (Fc fusion)
chain: DQSKPWNVYRLPKTLIPDSYNVTLRPYLTPNNKGLYVFTGTNIVRFTCKESTNIVIIHSKRLNYTSHQGHMVALSGVGGFHPQPVIVRTELVELTEYLVVHLQEPLVAGRQYEMNSEFQGELADDLAGFYRSEYMENGVKKVLATTHMQATEARKSFPCFDEPAMKATFNITIIHPNNLVALSNMLPRGPSVPFGEDPTWKVTEFETTPIMSTYLLAYIVSEFSYVETRAPSGVLIRIWARPSAINQGHGDYALKVTGPILDFFSQHYDTPYPLNKSDQIALPDFNAGAMENWGLVTYRESALLYDRQSSSSGNQERVVTVIAHELAHQWFGNLVTLEWWNDLWLNEGFASYVEYLGADFAEPTWNLKDLMVLNDVYRVMAVDALASSHPLSTPASEINTPAQISEVFDSISYSKGASVLRMLSNFLTEDLFKMGIASYLHTYKYGNTIYLNLWEHLQQVVDKQPTIKLPDTVSAIMDRWILQMGFPVITVDTQTGTISQQHFLLDPQSVVTRPSQFNYLWIVPISSVRSGSPQAHYWLPGVEKAQNDLFKTTANDWVLLNLNVTGYYLVNYDNENWKKIQTQLQTDLSVIPVINRAQVIHDAFNLASAQKVPVTLALNNTLFLIQETEYMPWQAALSSLSYFKLMFDRSEVYGPMKRYLKKQVTPLFNHFERVTKNWTDHPQTLMDQYSEINAVSTACSYGVPECEKLAATLFAQWKKNPQNNPIHPNLRSTVYCNAIAQGGEEEWNFVWEQFLKAELVNEADKLRGALACSNQVWILNRFLSYTLDPNLIRKQDVTSTLSSISSNVVGQTLVWDFVQSNWKKLFQDYGTGSFSFSNLIQAVTRRFSTEFELQQLEQFKKNNMDTGFGSATRALEQALEKTKANLKWVKENKDVVLRWFTENS
B2: canine APN-Fc ectodomain (dimeric) (Fc fusion)
chain: LAQSKPWNHYRLPKTLIPSSYNVTLRPYLTPNSNGLYTFKGSSTVRFTCKESTSMIIIHSKKLNYTNIQGQRVALRGVGGSQAPAIDRTELVEVTEYLVVHLREPLQVNSQYEMDSKFEGELADDLAGFYRSEYTENGVKKVLATTQMQAADARKSFPCFDEPAMKATFNITLIHPSNLVALSNMLPRGPSVPFTEEPNWNVTEFETTPIMSTYLLAYIVSEFKNVQENTPSNVLIRIWARPSAMDQGHGNYALRVTGPILDFFSRHYDTPYPLNKSDQIALPDFNAGAMENWGLVTYRESALLYDPQSSSIGNKERVVTVIAHELAHQWFGNLVTLEWWNDLWLNEGFASYVEYLGADYAEPTWNLKDLIVLNEVYRVMAVDALASSHPLSSPASEVNTPAQISEVFDSISYSKGASVLRMLSSFLTEDLFKKGVASYLHTFAYQNTIYLDLWNHLQWALGNQTAINLPYTVNAIMDRWILQMGFPVVTVDTTTGTLSQKHFLLDPQSNVTRPSKFNYLWIIPISSVKSGTQQAHYWMPDNAKVQNDLFKTTGDEWVLLNLNVTGYYLVNYDQNNWKKIHTQLQTDLSVIPVINRAQVIHDTFDLASAQIVPVTLALNSTLFLNQETEYMPWEAALSSLSYFKLMFDRSEVYGPMKNYLRKQVTPLFNHFEKITQNWTDHPQTLTEQYNEINAVSTACTYGVPKCKDLVSTLFAEWRKNPQNNPIYPNLRSTVYCNAIAQGGEEEWNFVWEQFRNTSLVNEADKLRSALACSTQVWILNRYLSYTLNPEFIRKQDVISTLSSIASNVIGQSLAWDFIQSNWKKLFEDYGTGSFSFSNLIQAVTRRFSTEFELQQLEQFKANNMDTGFGSGTRALEQALEKTKANIKWVKENKEAVLQWFRENSQ

Experiments:
[1] = target: T1, CCoV-HuPn-2018 S domain B …; experiment: BLI
[2] = target: FCoV-23 S domain B (receptor-binding domain), residues 529-677, avi- and His-tagged (FCoV-23 (feline coronavirus)); experiment: BLI

Binder	Kd [1]	Kd [2]	koff [2]
B1	28 nM	10 nM	0.0013 s⁻¹ and 0.0014 s⁻¹
B2	2.6 nM	1.2 nM	0.00019 s⁻¹ and 0.00018 s⁻¹
